Test system: K4 kissing-loop RNA reporter
Test: apparent KD of K4 kissing-loop reporter; higher = weaker reporter binding
Conditions: Eterna round: R107
Protocol: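 RNA-MaP round R107: designed RNA switches with theophylline, tryptophan, arginine or FMN aptamers are transcribed on-chip within common flanks. They are titrated with a labelled K4 kissing-loop RNA reporter in RNA-MaP buffer (100 mM Tris pH 7.5, 80 mM KCl, 4 mM MgCl2), without ligand or with the indicated ligand. Median apparent KD per design.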

[1] = input ligand: theophylline 20 uM
[2] = input ligand: tryptophan 2.4 mM
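Further: bound reporter read as fluorescence of individual clusters on recovered sequencing chips by microscopy, with normalized cluster intensities fitted with a binding model.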

| Sequence | apparent KD of K4 kissing-loop reporter (input ligand: FMN 200 uM) [nM] | apparent KD of K4 kissing-loop reporter (input ligand: arginine 13.2 mM) [nM] | apparent KD of K4 kissing-loop reporter (input ligand: none) [nM] | apparent KD of K4 kissing-loop reporter [1] [nM] | apparent KD of K4 kissing-loop reporter [2] [nM] |
| --- | --- | --- | --- | --- | --- |
| GGGCAUGUUAAAGGAUAUAGCAGGUGAUACAAGAAAGUGAGUGAUGUUUAUGUAGAUGAUGAUAUGUUAGAAGGUUAACAAAACC [abcdefghijklm] | 597 | 475 | 620 | 529 | 374 |
| AAGAAGGUCAAAGACCUUCGUGCACCUGAUACCAGUCGCGAAAGCGACCCUUGGCAGCAGGGCAGUGAUGUUGCCAAGUGCACAA [Omei KL Theo A SS A v1] | 782 | 650 | 898 | 400 | 823 |
| UAGUGUCGCGCAGGAUAUACUGAUUGGAGUGAUGUUCCAAACAUGAACGUGAGACUUUUACAAGAAGUAGAAGGGCGUGAGACAU [Exclusion FMN B GF 21] | 276 | 320 | 405 | 393 | 404 |
| GUAUCAGUGAUGUUGAUAGGCGAGCGGGAUACCAGCCAAGACUCAGGCCCUUGGCAGCCCACAUAUCCCACGUAGAUAGUAGCUC [Same State - Theophylline A (Freestyle 16)] | 137 | 105 | 128 | 139 | 123 |
| CAAAUAUGCGGUAGGUUCAAGCGCUGGGAAGGAGCGCAGAUGACUGCAGGUAGGUCGCCCAGUGAUGUUGGGCUUUCCACCUAUU [Edbeaan] | 123 | 124 | 132 | 146 | 121 |
| CUCGAGUGAUGUUCGAUUAUGUAUACAGAUACCAGUGAAUUUUAACACCCUUGGCAGCUGGUAGAAUCUUUGUAAUUUUAACUAG [JR_ExcTheophyA_Sub002] | 162 | 253 | 180 | 230 | 134 |
| CGCAGUGAUGUUGCGAACAUAAUGCAUUCAGAGGAUAUUCGUUUGGGAAGAAGGCUGAAUCGUUUUUCGAGUGAUGUUUGAGGAA [Same State FMN A GF 18] | 106 | 88.2 | 114 | 91 | 94.6 |
| GGGAGGAGUGGUGUUGAUUAAGAAGCGGAAGGAGCGCCGAAGAAGGCAGGUAGGUCGCCGAAAUAUAGUGAUGUUAUAUAAAGGG [ExArg.C] | 340 | 198 | 281 | 262 | 208 |
| AAACGCUGGUGAAUAACACUAGCGAAUUCGCGAGGACCGGUACGGCCGCCACUCGCUAACUGCGAGUGAUGUUCGAUAAUAAAAU [Mat - Mod of OpenEnded 3 - D2] | 141 | 107 | 154 | 189 | 142 |
| GUGACGCGGACGGCCGCCACUCCGGUGACCGCUCCGUGCCGCCCUGCGCGAGUGAUGUUCGCCAGGAGGACCGGGUCCGACUUUA [Soesente] | 107 | 101 | 106 | 89.4 | 96.3 |
| UCCAAUAUUUAUUGAUCCGCCUCGCAUCAACGAGGACCGGUACGGCCGCCACUCGUGCCUAGGUAGUGAUGUUACUUAGUUUACU [theeternabot_sameState_KL_Trp_A_32] | 93.2 | 162 | 114 | 188 | 196 |
| AUUCGCUCCACUGAUACCAGUCAUCGAGCAAGAUGCUAAGCCAGUGAUGUUGGCAUGAAUGACCCUUGGCAGCAGUACACUAAGG [Theo B SS t7] | 65.4 | 106 | 75.6 | 113 | 60 |
| AGACUACCUACACUGUCAAUAGACAGUGACUAGGAUAUGCUGAUAAGCAGAAGGAGUGAUGUUCCUGGUAGUCAAAUAAAAUAAU [FmnAX 12 #SwitchBubble #StaticStem #K4Early] | 498 | 295 | 311 | 323 | 278 |
| AAACGUUGGUCUGAUACCAGCUUGAUCGGUAAACGAUCUACUGGAGUGAUGUUCCUAAAUAGCCCUUGGCAGCAGACCGACGAAA [MAT - Same State Theophlline B - Mod of Eli - D7] | 195 | 163 | 173 | 118 | 170 |
| UGAUACCAGACGGCCGCCACUCCCGUAAGUCAAAGACUUACGAAGAGAGUUAUCCAGUGAUGUUGGAGGACCGGGUCUGGUAUCU [FiskerMod 14 - Jieux - Exclusion - Tryptophan B] | 210 | 199 | 192 | 199 | 261 |
| CCAAUCUGUUACGAUACCAGUCAAAGAUAUUUGAUCAAUACCCUCACCGAGUGAUGUUCGGACCCUUGGCAGCGUCUGGGAUAGG [ceevmullin] | 228 | 267 | 266 | 281 | 193 |

| Sequence | apparent KD of K4 kissing-loop reporter (input ligand: FMN 200 uM) [nM] | apparent KD of K4 kissing-loop reporter (input ligand: arginine 13.2 mM) [nM] | apparent KD of K4 kissing-loop reporter (input ligand: none) [nM] | apparent KD of K4 kissing-loop reporter [1] [nM] | apparent KD of K4 kissing-loop reporter [2] [nM] |
| --- | --- | --- | --- | --- | --- |
| AAUAAAAUCACGGCCGCCACUGGUACUAGUAUUAGCAGUGAUGUUGCUAUGUAUAAUUUAUUAAAUAGGACCGGGUGAAUAUUUA [#27 K4 Tryptophan B Exclusion] | 326 | 281 | 238 | 233 | 208 |
| CCAGGAUGAUGAGGAUGAUGAAUUACUGAAGGAGCGCAUAUGGUUGCAGGUAGGUCGCGGUGAACAAGUAUAGUGAUGUUAUGCC [SSArgA.W] | 575 | 615 | 795 | 1160 | 545 |
| UGUAAGCGCGUAGAUACCAGCAAACAAAGAGUGAUGUUCAGAUUAAGGAAAAGAAAGUAAUGCCCUUGGCAGCUAAUCAUAAGCG [Theophylline B Exclusion; Euphoria Solution] | 419 | 409 | 354 | 497 | 319 |
| AGUCCACUCUAAAGAGUGGACCUAAGGGAUACCAGUGAUGUUGGUCACCCUUGGCAGCCCUCUGUCAUCGAUAAAGAUGGCAGGA | 128 | 114 | 113 | 137 | 119 |
| CUUCUUCUUCCAAUCUCGGCCAACACGGGACGAGGACCGGUACGGCCGCCACUCGUGCAGUGAUGUUGCACGAUGGUGACGGAGA [Engebiisso] | 98.5 | 81.1 | 84.6 | 74.7 | 113 |
| AACGGCCAGUCGGCCGCCACUCGAUGCAGUGAUGUUGCUAACUUUCUAAAAGAGUGAUGUUCAUGGAGGACCGGGACUAAUGUAA [#29 K4 Tryptophan B Exclusion] | 349 | 298 | 346 | 382 | 228 |
| CGCAAGCAGCCAGUGAUGUUGGCCGCCUUGCGAGGACCGGUACGGCCGCCACUCGAAGGCGGCUAGUAGUAGUCUGUCUAACGGA [KL-XTryp-A16] | 104 | 107 | 112 | 74 | 184 |
| GCCGUAGAUUGAAGGAGCGCCUUCUUACCAAGAGUGAUGUUCUUUGGUACCAUGUUCAGCAGGCAGGUAGGUCGCAAUCUACGGC | 195 | 142 | 188 | 155 | 169 |
| GGCCGCAAGGCGGGCCGGCCCACUCCGGAAGGAGCGCCCGCAAGGGCAGGUAGGUCGCCGGAGUGAUGUUCCGGUGGCCGGCCCG [#2 Exclusion - Arginine A Attempt #2 (Inspired by Omei)] | 140 | 136 | 133 | 93.8 | 130 |
| AAGAGGUAGGCGGCCGCCACUAGUUGUGAACACAUACGAGCCAGUGAUGUUGGUAUUGUGGGCGGUAGGACCGGGCCUACCUGAA [Exclusion - Tryptophan B (Freestyle 19)] | 319 | 336 | 358 | 322 | 281 |
| GAAGGUCAAAGACCUUCGUGCACACCUGAUACCAGUCGCGAAAGCGACCCUUGGCAGCAGGGCAGUGAUGUUGCCAGUGCACAAA [Omei KL Theo A SS A v5] | 194 | 176 | 191 | 164 | 159 |
| UGUCAUUGGUCGGCCGCCACUAGGACCGGGUAUAACCUAGUGAUGUUAGUAAAUACGGCCGCCACUAGGACCGGGACCGAUGACU [KL-SSTryp-B18 #DoubleAptamer] | 415 | 296 | 583 | 471 | 102 |
| UAAGAUAUAAGGGAUACCAGCCAUAAGGAAAGUGUGAUGAGUGAUGUUCUGACAAGCCAAGGCCCUUGGCAGCUUUAAUAGCAUC [Theophylline B Same State; Euphoria Solution] | 303 | 198 | 471 | 263 | 235 |
| CCUAUCUCAUACGAUACCAGUCCGAGUGAUGUUCGAAAAUAAAUAAAUUUGCCAUAUAAUGACCCUUGGCAGCGUAUGGGAUAGG [Ex Theophylline B K4 11] | 354 | 296 | 351 | 400 | 300 |
| CACCAUGAAUUCUCUAGGAGUGAUGUUUUUCGAGGACCGGUACGGCCGCCACUCGGACCAGGAACGUGGGAGCGGCGAAAAGACU [ttmullin] | 656 | 438 | 688 | 494 | 373 |

— the supplement of paper PMC9170038
